Experimental data published in the supplement of paper PMC7877785.
± gives the uncertainty stated by the source.

Assay: self-splicing fitness, log relative to wild type (ln ratio); higher = more splicing; Tetrahymena group I intron in knt gene, E. coli kanamycin selection, DiMSum; sequences stand for … in CUCUCU…GGAGGGAAAAGUUAUCAGGCAUGCACCUGGUAGCUAGUCUUUAAACCAAUAGAUUGCAUCGGUUUAAAAGGCAAGACCGUCAAAUUGCGGGAAAGGGGUCAACAGCCGUUCAGUACCAAGUCUCAGGGGAAACUUUGAGAUGGCCUUGCAAAGGGUAUGGUAAUAAGCUGACGGACAUGGUCCUAACCACGCAGCCAAGUCCUAAGUCAACAGAUCUUCUGUUGAUAUGGAUGCAGUUCACAGACUAAAUGUCGGUCGGGGAAGAUGUAUUCUUCUCAUAAGAUAUAGUCGGACCUCUCCUUAAUGGGAGCUAGCGGAUGAAGUGAUGCAACACUGGAGCCGCUGGGAACUAAUUUGUAUGCGAAAGUAUAUUGAUUAGUUUUGGAGUACUCGUGGUCG
Procedure, shortened: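 Pooled colonies went to amplicon sequencing on an Illumina HiSeq 2500 after six replicate transformations. The plates were LB agar with 100 μg/mL carbenicillin, 50 μM IPTG and 0.2% rhamnose, with or without 25 μg/mL kanamycin, incubated overnight at 37°C or 30°C. The E. coli BL21(DE3) library had all eight P1ex-region intron nucleotides randomised, the intron placed in the knt kanamycin-resistance gene on pET-22b(+). DiMSum fitness is the error-weighted combination of replicate fold changes, kanamycin against none, normalised to wild type.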

## GAUGAGCAAUAUUACGAGAC
30 °C
  self-splicing fitness (ln): -2.67 ± 0.25
37 °C
  self-splicing fitness (ln): -1.97 ± 0.3

## AUCCAGCAAUAUUACGUAAA
30 °C
  self-splicing fitness (ln): -1.3 ± 0.064
37 °C
  self-splicing fitness (ln): -0.843 ± 0.093

## GCCCAGCAAUAUUACGAGUC
30 °C
  self-splicing fitness (ln): -0.477 ± 0.039
37 °C
  self-splicing fitness (ln): -0.126 ± 0.059

## CAGAAGCAAUAUUACGCUAC
30 °C
  self-splicing fitness (ln): -0.828 ± 0.41

## UAAUAGCAAUAUUACGUUAG
30 °C
  self-splicing fitness (ln): -1.84 ± 0.094
37 °C
  self-splicing fitness (ln): -1.13 ± 0.12

## GCGGAGCAAUAUUACGUAAU
30 °C
  self-splicing fitness (ln): -1.52 ± 0.15
37 °C
  self-splicing fitness (ln): -1.73 ± 0.24

## GGUAAGCAAUAUUACGCAGC
30 °C
  self-splicing fitness (ln): -0.901 ± 0.24
37 °C
  self-splicing fitness (ln): -1.19 ± 0.23

## UAAGAGCAAUAUUACGACUG
30 °C
  self-splicing fitness (ln): -2 ± 0.14
37 °C
  self-splicing fitness (ln): -0.767 ± 0.15

## UAACAGCAAUAUUACGUUUA
30 °C
  self-splicing fitness (ln): -0.893 ± 0.063
37 °C
  self-splicing fitness (ln): -0.563 ± 0.071

## GUCUAGCAAUAUUACGCGCA
30 °C
  self-splicing fitness (ln): -0.481 ± 0.098
37 °C
  self-splicing fitness (ln): 0.157 ± 0.087

## GCACAGCAAUAUUACGCAGG
30 °C
  self-splicing fitness (ln): -3.5 ± 0.18
37 °C
  self-splicing fitness (ln): -2.74 ± 0.18

## CUUUAGCAAUAUUACGUGCA
30 °C
  self-splicing fitness (ln): -2.93 ± 0.23
37 °C
  self-splicing fitness (ln): -2.75 ± 0.25

## ACGUAGCAAUAUUACGAAGA
30 °C
  self-splicing fitness (ln): -2.85 ± 0.41
37 °C
  self-splicing fitness (ln): -0.644 ± 0.16

## GUGGAGCAAUAUUACGUAGA
30 °C
  self-splicing fitness (ln): -2.11 ± 0.45
37 °C
  self-splicing fitness (ln): -1.16 ± 0.23

## GCGAAGCAAUAUUACGAUGU
30 °C
  self-splicing fitness (ln): -2.82 ± 0.15
37 °C
  self-splicing fitness (ln): -1.42 ± 0.12

## GGCUAGCAAUAUUACGGAUA
30 °C
  self-splicing fitness (ln): -0.897 ± 0.13
37 °C
  self-splicing fitness (ln): -0.492 ± 0.15

## GAUUAGCAAUAUUACGGAUU
30 °C
  self-splicing fitness (ln): -3.17 ± 0.21
37 °C
  self-splicing fitness (ln): -2.13 ± 0.23

## AAGAAGCAAUAUUACGGCCC
30 °C
  self-splicing fitness (ln): -0.651 ± 0.13
37 °C
  self-splicing fitness (ln): -0.518 ± 0.16

## AUCCAGCAAUAUUACGUCGA
30 °C
  self-splicing fitness (ln): -0.897 ± 0.097
37 °C
  self-splicing fitness (ln): -0.557 ± 0.12

## ACUGAGCAAUAUUACGCACA
30 °C
  self-splicing fitness (ln): -2.37 ± 0.4
37 °C
  self-splicing fitness (ln): -2.15 ± 0.29

## GGGCAGCAAUAUUACGCCGC
30 °C
  self-splicing fitness (ln): -3.33 ± 0.22
37 °C
  self-splicing fitness (ln): -2.27 ± 0.31

## GGCAAGCAAUAUUACGGUGC
30 °C
  self-splicing fitness (ln): -2.87 ± 0.16
37 °C
  self-splicing fitness (ln): -1.77 ± 0.17

## UCCGAGCAAUAUUACGCUAG
30 °C
  self-splicing fitness (ln): -3.12 ± 0.31
37 °C
  self-splicing fitness (ln): -2.75 ± 0.34

## AUUGAGCAAUAUUACGAACU
30 °C
  self-splicing fitness (ln): -1.9 ± 0.23
37 °C
  self-splicing fitness (ln): -0.643 ± 0.2

## GAUUAGCAAUAUUACGCAGU
30 °C
  self-splicing fitness (ln): -3.28 ± 0.32
37 °C
  self-splicing fitness (ln): -1.44 ± 0.19

## AUCAAGCAAUAUUACGUCAC
30 °C
  self-splicing fitness (ln): -2.32 ± 0.16
37 °C
  self-splicing fitness (ln): -2.28 ± 0.3

## GCAGAGCAAUAUUACGAGUC
30 °C
  self-splicing fitness (ln): -2.97 ± 0.25
37 °C
  self-splicing fitness (ln): -2.39 ± 0.32

## UCUCAGCAAUAUUACGCGAG
30 °C
  self-splicing fitness (ln): -3.73 ± 0.37
37 °C
  self-splicing fitness (ln): -0.582 ± 0.15

## UGAGAGCAAUAUUACGCCGG
30 °C
  self-splicing fitness (ln): -3.37 ± 0.47

## CACCAGCAAUAUUACGUACA
30 °C
  self-splicing fitness (ln): -3.16 ± 0.17
37 °C
  self-splicing fitness (ln): -1.59 ± 0.13

## ACCGAGCAAUAUUACGUCUA
30 °C
  self-splicing fitness (ln): -3.65 ± 0.28
37 °C
  self-splicing fitness (ln): -2.86 ± 0.17

## GAGGAGCAAUAUUACGGCAU
37 °C
  self-splicing fitness (ln): -1.87 ± 0.46

## CACUAGCAAUAUUACGGUAA
30 °C
  self-splicing fitness (ln): -2.52 ± 0.16
37 °C
  self-splicing fitness (ln): -0.923 ± 0.11

## GAACAGCAAUAUUACGUGCA
30 °C
  self-splicing fitness (ln): -1.09 ± 0.065
37 °C
  self-splicing fitness (ln): 0.0769 ± 0.089

## UCCAAGCAAUAUUACGCACC
30 °C
  self-splicing fitness (ln): -4.36 ± 0.32
37 °C
  self-splicing fitness (ln): -1.94 ± 0.21

## GUUGAGCAAUAUUACGGGCA
30 °C
  self-splicing fitness (ln): -3.29 ± 0.23
37 °C
  self-splicing fitness (ln): -0.813 ± 0.16

## AGUCAGCAAUAUUACGGCGU
30 °C
  self-splicing fitness (ln): 0.0847 ± 0.073
37 °C
  self-splicing fitness (ln): 0.74 ± 0.096

## GAAAAGCAAUAUUACGCAGU
30 °C
  self-splicing fitness (ln): -3.38 ± 0.18
37 °C
  self-splicing fitness (ln): -1.69 ± 0.15
